This passage reports KD without m3 or m4 (untreated control) results from PMC8024337.

A value given as a limit tells only on which side of the number the result lay.

The assay addresses Ror2-mCherry (xRor2-mCherry in pCS2+). The assay is described as follows: fluorescence cross-correlation spectroscopy (FCCS); plasma membrane of live PAC2 cells expressing GFP-Vangl2 and Ror2-mCherry; untreated control (no Wnt protein added); laser spot scanned across the membrane for 16 s; diffusion with triplet fit.

As for “GFP-Vangl2 (meGFP-Vangl2 in pcDNA3.1) (from UniProt Q8UVJ6 1-526) (natural protein)”, the KD without m3 or m4 (untreated control) was > 1100 nM.
